B1: human SALM5 LRR–Ig-His6 (residues 18–378) [human] / itself (parent)
chain: QICPKRCVCQILSPNLATLCAKKGLLFVPPNIDRRTVELRLADNFVTNIKRKDFANMTSLVDLTLSRNTISFITPHAFADLRNLRALHLNSNRLTKITNDMFSGLSNLHHLILNNNQLTLISSTAFDDVFALEELDLSYNNLETIPWDAVEKMVSLHTLSLDHNMIDNIPKGTFSHLHKMTRLDVTSNKLQKLPPDPLFQRAQVLATSGIISPSTFALSFGGNPLHCNCELLWLRRLSREDDLETCASPPLLTGRYFWSIPEEEFLCEPPLITRHTHEMRVLEGQRATLRCKARGDPEPAIHWISPEGKLISNATRSLVYDNGTLDILITTVKDTGAFTCIASNPAGEATQIVDLHIIKLP

Variants of: B1
Assay: SEC-MALS
Details: with itself; read off a plot

| screen value [kDa] | Variant |
| --- | --- |
| 56 | chain 1 N141A |

— publication PMC5773591, “Structural basis of trans-synaptic interactions between PTPδ and SALMs for inducing synapse formation” (Nature Communications, 2018)
